Experimental data reported in patent publication EP0691409B1.

Biological target: mutant pro-urokinase (human) (UniProt P00749)
Assay: cell-based or functional assay

## mixture of human MMP2 and MMP9, activated with APMA
  activated MMP (ΔA/h^2*1000); time 0 h, 0.15 µM modified pro-urokinase: < 0.05 ΔA/h^2·1000
  activated MMP (ΔA/h^2*1000); time 1 h: 0.3 ΔA/h^2·1000
  activated MMP (ΔA/h^2*1000); time 2 h: < 0.05 ΔA/h^2·1000
  activated MMP (ΔA/h^2*1000); time 3 h: < 0.05 ΔA/h^2·1000
  activated MMP (ΔA/h^2*1000); time 4 h: 1.1 ΔA/h^2·1000
  activated MMP (ΔA/h^2*1000); time 6.5 h: 1.3 ΔA/h^2·1000
  activated MMP (ΔA/h^2*1000); time 24 h: 3.6 ΔA/h^2·1000
  activated MMP (ΔA/h^2*1000); time 31 h: 35.9 ΔA/h^2·1000
  activated MMP (ΔA/h^2*1000); time 48 h: 48.9 ΔA/h^2·1000
  activated MMP (ΔA/h^2*1000); time 48 h + EDTA: < 0.05 ΔA/h^2·1000

## mixture of human MMP2 and MMP9, not activated
  not activated MMP (ΔA/h^2*1000); time 0 h, 0.15 µM modified pro-urokinase: < 0.05 ΔA/h^2·1000
  not activated MMP (ΔA/h^2*1000); time 1 h: < 0.05 ΔA/h^2·1000
  not activated MMP (ΔA/h^2*1000); time 2 h: < 0.05 ΔA/h^2·1000
  not activated MMP (ΔA/h^2*1000); time 3 h: < 0.05 ΔA/h^2·1000
  not activated MMP (ΔA/h^2*1000); time 4 h: < 0.05 ΔA/h^2·1000
  not activated MMP (ΔA/h^2*1000); time 6.5 h: < 0.05 ΔA/h^2·1000
  not activated MMP (ΔA/h^2*1000); time 24 h: 1 ΔA/h^2·1000
  not activated MMP (ΔA/h^2*1000); time 31 h: 2.1 ΔA/h^2·1000
  not activated MMP (ΔA/h^2*1000); time 48 h: 14 ΔA/h^2·1000
  not activated MMP (ΔA/h^2*1000); time 48 h + EDTA: < 0.05 ΔA/h^2·1000
